According to PMC2239301:

Target: Smy2p fused to the LexA-DNA binding domain (S. cerevisiae)
Experiment: two-hybrid

Chain of Smy2p fused to the LexA-DNA binding domain (S. cerevisiae) (P32909 whole entry, the tested form may be a part): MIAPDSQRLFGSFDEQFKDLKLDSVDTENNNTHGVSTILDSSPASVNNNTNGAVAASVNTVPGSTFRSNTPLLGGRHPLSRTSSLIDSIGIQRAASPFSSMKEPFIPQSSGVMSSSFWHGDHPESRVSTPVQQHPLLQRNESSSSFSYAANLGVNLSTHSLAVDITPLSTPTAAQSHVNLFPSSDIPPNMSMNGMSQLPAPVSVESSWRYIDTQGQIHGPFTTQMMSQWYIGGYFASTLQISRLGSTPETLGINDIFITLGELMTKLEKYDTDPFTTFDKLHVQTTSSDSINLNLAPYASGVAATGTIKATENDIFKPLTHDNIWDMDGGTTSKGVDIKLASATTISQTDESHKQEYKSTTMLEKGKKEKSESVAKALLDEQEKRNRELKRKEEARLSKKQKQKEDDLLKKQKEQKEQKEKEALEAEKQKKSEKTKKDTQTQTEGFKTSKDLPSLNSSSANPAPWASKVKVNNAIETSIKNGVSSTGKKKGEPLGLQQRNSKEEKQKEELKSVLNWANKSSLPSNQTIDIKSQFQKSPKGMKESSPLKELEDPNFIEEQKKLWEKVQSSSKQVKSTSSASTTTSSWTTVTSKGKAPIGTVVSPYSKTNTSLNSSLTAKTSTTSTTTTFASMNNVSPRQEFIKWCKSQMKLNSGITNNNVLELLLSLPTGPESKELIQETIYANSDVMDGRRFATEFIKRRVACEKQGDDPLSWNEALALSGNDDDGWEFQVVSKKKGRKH

B1: Sec23p connected to the B42 acidic activation domain (natural protein)
chain: MDFETNEDINGVRFTWNVFPSTRSDANSNVVPVGCLYTPLKEYDELNVAPYNPVVCSGPHCKSILNPYCVIDPRNSSWSCPICNSRNHLPPQYTNLSQENMPLELQSTTIEYITNKPVTVPPIFFFVVDLTSETENLDSLKESIITSLSLLPPNALIGLITYGNVVQLHDLSSETIDRCNVFRGDREYQLEALTEMLTGQKPTGPGGAASHLPNAMNKVTPFSLNRFFLPLEQVEFKLNQLLENLSPDQWSVPAGHRPLRATGSALNIASLLLQGCYKNIPARIILFASGPGTVAPGLIVNSELKDPLRSHHDIDSDHAQHYKKACKFYNQIAQRVAANGHTVDIFAGCYDQIGMSEMKQLTDSTGGVLLLTDAFSTAIFKQSYLRLFAKDEEGYLKMAFNGNMAVKTSKDLKVQGLIGHASAVKKTDANNISESEIGIGATSTWKMASLSPYHSYAIFFEIANTAANSNPMMSAPGSADRPHLAYTQFITTYQHSSGTNRIRVTTVANQLLPFGTPAIAASFDQEAAAVLMARIAVHKAETDDGADVIRWLDRTLIKLCQKYADYNKDDPQSFRLAPNFSLYPQFTYYLRRSQFLSVFNNSPDETAFYRHIFTREDTTNSLIMIQPTLTSFSMEDDPQPVLLDSISVKPNTILLLDTFFFILIYHGEQIAQWRKAGYQDDPQYADFKALLEEPKLEAAELLVDRFPLPRFIDTEAGGSQARFLLSKLNPSDNYQDMARGGSTIVLTDDVSLQNFMTHLQQVAVSGQA
Question: Which β-galactosidase activity does the source give for B1 here?
Answer: 26 units
